Measurements reported in the supplement of paper PMC9170038.

Test system: MS2 coat protein
Experiment: apparent KD of MS2 coat protein; designed switch direction (-1 OFF switch, 1 ON switch): 1; higher = weaker reporter binding
Summary of the method: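 RNA switches sharing common flanks were transcribed by stalled E. coli RNA polymerase on Illumina chips. A doubling series of SNAP-549-labelled MS2 coat protein, from 0.7 or 1.5 nM to 3 µM, was applied in Tris-HCl pH 7.5 buffer with KCl, MgCl2, BSA, DTT, tRNA and Tween-20. Each step lasted 0.8–1.5 h at the bottom of the series and 10–20 min at the top. Normalised cluster fluorescence was curve-fitted, giving apparent KD as the per-design median over clusters.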

[1] = Eterna round: R95, input ligand: FMN 200 uM
[2] = Eterna round: R95, input ligand: microRNA oligo, concentration not stated
[3] = Eterna round: R95, input ligand: none
[4] = input ligand: microRNA oligo, concentration not stated

For “ACGCAGCUGGGUGAGGAUAUUGGUGGUACAACAUGAGGAUCACCCAUGUCCGAAGCUCGGACCUCCGAGAAGGCGCCCGGCUGCG [Soinraesar Omei Mod 4] (puzzle: Same State 2)”, the “apparent KD of MS2 coat protein” value [1] was 39.7 nM, the “apparent KD of MS2 coat protein” value [2] was 269 nM and the “apparent KD of MS2 coat protein” value [3] was 912 nM.
With “AGAAUGCACAUGAGGAUCACCCAUGUACCCGGCUGGCAUUUGCAGGAUAUGCCGCGGCGAGCCCAGCAGAAGGGCAAGUGCUAA [Eternabot solution 4] (Eterna round: R96, puzzle: Same State NG 3)” the “apparent KD of MS2 coat protein” value (input ligand: FMN 200 uM) was 25.8 nM, the “apparent KD of MS2 coat protein” value [4] was 19 nM and the “apparent KD of MS2 coat protein” value (input ligand: none) was 26.9 nM.
With “AGAGCCGGCACUGAGGAUAUUCAUAAUAAAACAUGAGGAUCACCCAUGUAGGCCAGAAGGCCUUGGGAGAAGGCAGGUCGGCUCA [Mat - Same State 2 - Mod of UCT - D67] (puzzle: Same State 2)” the “apparent KD of MS2 coat protein” value [1] was 16.7 nM, the “apparent KD of MS2 coat protein” value [2] was 176 nM and the “apparent KD of MS2 coat protein” value [3] was 269 nM.
“AGCAAUCUAUCUCAGGAUAUCAUGUCAAAGACAUGAGGAUCACCCAUGUACCAGGAAACUGGUUAUGAGAAGGGAGAUAGAUUGA [Mat - Same State 2 - Mod - D29] (puzzle: Same State 2)” was tested, and the “apparent KD of MS2 coat protein” value [1] was 154 nM, the “apparent KD of MS2 coat protein” value [2] was 52.2 nM and the “apparent KD of MS2 coat protein” value [3] was 177 nM.
For “AGCCGAGACACAGGAUAUACAUGUUUACAUGAGGAUCACCCAUGUAGCAACACGUGGUAGUGAUUGUAGAAGGGUGCUCGGCGC [Omei SS(NG)2 Cv12] (Eterna round: R96, puzzle: Same State NG 2)”, the “apparent KD of MS2 coat protein” value (input ligand: FMN 200 uM) was 15.8 nM, the “apparent KD of MS2 coat protein” value [4] was 12.6 nM and the “apparent KD of MS2 coat protein” value (input ligand: none) was 23.3 nM.
With “AGCCGAGACUGAGGAUAUAGAAAUCUACAUGAGGAUCACCCAUGUAACAACACGUGGUAGUGAUUCUAGAAGGCGGCUCGGCGC [Omei SS(NG)2 Cv4] (Eterna round: R96, puzzle: Same State NG 2)” the “apparent KD of MS2 coat protein” value (input ligand: FMN 200 uM) was 113 nM, the “apparent KD of MS2 coat protein” value [4] was 279 nM and the “apparent KD of MS2 coat protein” value (input ligand: none) was 1150 nM.
In the case of “AGCUAUCGAAAACGAUAGCAAAAGCAUGUACAUGAGGAUCACCCAUGUCAUGUACAAGUUUUUUGCUCGUCUUAAAA [Zipper 23 - 13] (puzzle: Sensor for hsa-mir-208a)”, the “apparent KD of MS2 coat protein” value [1] is reported as 107 nM, the “apparent KD of MS2 coat protein” value [2] is reported as 13.1 nM and the “apparent KD of MS2 coat protein” value [3] is reported as 121 nM.
In the case of “AGCUAUCGAAAACGAUAGCAAGAGCAUGUACAUGAGGAUCACCCAUGUCAUGUACAAGCUUUUUGCUCGUCUUAAAA [Zipper 23 - 2] (puzzle: Sensor for hsa-mir-208a)”, the “apparent KD of MS2 coat protein” value [1] is reported as 330 nM, the “apparent KD of MS2 coat protein” value [2] is reported as 17 nM and the “apparent KD of MS2 coat protein” value [3] is reported as 490 nM.
For “AGCUAUCGCGUACGAUAGCUGAAGCAUGUACAUGAGGAUCACCCAUGUCAUGUGCAGGCUUUUUGCUCGUCUUAUUG [JL-shm-2.30 JL mod] (puzzle: Sensor for hsa-mir-208a)”, the “apparent KD of MS2 coat protein” value [1] was 68.9 nM, the “apparent KD of MS2 coat protein” value [2] was 13.3 nM and the “apparent KD of MS2 coat protein” value [3] was 75.1 nM.
“AGCUAUCGCGUACGAUAGCUGAAGCGUGUACAUGAGGAUCACCCAUGUCAUGUGCAGGCUUUUUGCUCGUCUUAUUG [JL-shm-2.31 JL mod] (puzzle: Sensor for hsa-mir-208a)” was tested, and the “apparent KD of MS2 coat protein” value [1] was 640 nM, the “apparent KD of MS2 coat protein” value [2] was 17.2 nM and the “apparent KD of MS2 coat protein” value [3] was 648 nM.
For “AGCUAUUACGAAGGAUAUUGUAACAUGAGGAUCACCCAUGUUUACAUGAUUAAUUGUGAUCACGUCGAGAAGGUUGUACUAACA [SameState NG2 #33] (Eterna round: R96, puzzle: Same State NG 2)”, the “apparent KD of MS2 coat protein” value (input ligand: FMN 200 uM) was 17.5 nM, the “apparent KD of MS2 coat protein” value [4] was 16.5 nM and the “apparent KD of MS2 coat protein” value (input ligand: none) was 19 nM.
For “AGCUUACAUGAGGAUCACCCAUGUUUUAGCCAGACAGGAUAUGGGUAUCUAAAACACAACCCAGAAGGGUCAAAAC [Usveriri] (puzzle: Same State 1)”, the “apparent KD of MS2 coat protein” value [1] was 57.5 nM, the “apparent KD of MS2 coat protein” value [2] was 233 nM and the “apparent KD of MS2 coat protein” value [3] was 489 nM.
With “AGCUUUUAAUUAGGAUAUGGUCACAUGAGGAUCACCCAUGUAACGAUGAUAUAAUGUGGUCAAGACUAGAAGGGAUCGCUAACA [SameState NG2 #69] (Eterna round: R96, puzzle: Same State NG 2)” the “apparent KD of MS2 coat protein” value (input ligand: FMN 200 uM) was 320 nM, the “apparent KD of MS2 coat protein” value [4] was 282 nM and the “apparent KD of MS2 coat protein” value (input ligand: none) was 284 nM.
In the case of “AGGCUCAGACGAGGAUAUACGUGGUCACAUGAGGAUCACCCAUGUCUCGAGCUUCGGCUCGAGGCGUAGAAGGCGUCUGAGCCA [SSNG2/6-A1] (Eterna round: R96, puzzle: Same State NG 2)”, the “apparent KD of MS2 coat protein” value (input ligand: FMN 200 uM) is reported as 152 nM, the “apparent KD of MS2 coat protein” value [4] is reported as 201 nM and the “apparent KD of MS2 coat protein” value (input ligand: none) is reported as 268 nM.
“AGGCUCAGACGAGGAUAUGGUCAUGGCGCUUCGGCGCAUACAUGAGGAUCACCCAUGUAGGGUGAUCAGAAGGCGUCUGAGCCA [SSNG2/9-A1] (Eterna round: R96, puzzle: Same State NG 2)” was tested, and the “apparent KD of MS2 coat protein” value (input ligand: FMN 200 uM) was 76.8 nM, the “apparent KD of MS2 coat protein” value [4] was 255 nM and the “apparent KD of MS2 coat protein” value (input ligand: none) was 365 nM.
For “AGGCUCAGAGCAGGAUAUACGUGGUCACAUGAGGAUCACCCAUGUCUCGAGCUUCGGCUCGAGGCGUAGAAGGGCUCUGAGCCA [SSNG2/6-B1] (Eterna round: R96, puzzle: Same State NG 2)”, the “apparent KD of MS2 coat protein” value (input ligand: FMN 200 uM) was 140 nM, the “apparent KD of MS2 coat protein” value [4] was 204 nM and the “apparent KD of MS2 coat protein” value (input ligand: none) was 330 nM.
For “AGGCUCGUGCUAGGAUAUCUAGGAUAUGGACGAGGAUUACCCGAGGAGCAUUAGCCCACCAGAGGAGAGAAGGAGCUACAUGCG [pwkr ssNG2 2F5 2FMN.12] (Eterna round: R96, puzzle: Same State NG 2)”, the “apparent KD of MS2 coat protein” value (input ligand: FMN 200 uM) was 1320 nM, the “apparent KD of MS2 coat protein” value [4] was 509 nM and the “apparent KD of MS2 coat protein” value (input ligand: none) was 513 nM.
With “AGGGAGGAUGCAGGAUAUACAAGACAUGAGGAUCACCCAUGUACCUUGUGGAGAAGAAAGGAGAGGUAGAAGGGUAGUGAGGAA [Default title] (Eterna round: R96, puzzle: Same State NG 2)” the “apparent KD of MS2 coat protein” value (input ligand: FMN 200 uM) was 11.7 nM, the “apparent KD of MS2 coat protein” value [4] was 13 nM and the “apparent KD of MS2 coat protein” value (input ligand: none) was 16.4 nM.
For “AGGGUACAUGAGGAUCACCCAUGUGGGUCGGUCGCAGGAUAUGCCCGUGGGCGCUGGCGGGCAGAAGGGUGCCGAA [Same State1-IX] (Eterna round: R96, puzzle: Same State 1)”, the “apparent KD of MS2 coat protein” value (input ligand: FMN 200 uM) was 81.4 nM, the “apparent KD of MS2 coat protein” value [4] was 187 nM and the “apparent KD of MS2 coat protein” value (input ligand: none) was 341 nM.
For “AGUCCAGCCUGAGCUGGACAAAAGCAUGUACAUGAGGAUCACCCAUGUCAUGUACAAGCUUUUUGCUCGUCAAAAUA [Mat - hsa-mir-208a - Mod of JL - D29] (puzzle: Sensor for hsa-mir-208a)”, the “apparent KD of MS2 coat protein” value [1] was 396 nM, the “apparent KD of MS2 coat protein” value [2] was 16.5 nM and the “apparent KD of MS2 coat protein” value [3] was 480 nM.
For “AGUCCAGCCUGAGCUGGACAAAAGCAUGUACAUGAGGAUCACCCAUGUUCAUGUACAAGCUUUUUGCUCGUCUAAAA [Mat - hsa-mir-208a - Mod of JL - 50] (puzzle: Sensor for hsa-mir-208a)”, the “apparent KD of MS2 coat protein” value [1] was 414 nM, the “apparent KD of MS2 coat protein” value [2] was 16.2 nM and the “apparent KD of MS2 coat protein” value [3] was 540 nM.
With “AGUCCAGCCUGAGCUGGACAAAAGCAUGUACAUGAGGAUCACCCAUGUUCAUGUACAAGCUUUUUGCUCGUCUUACU [salish99_208a_r3_077] (puzzle: Sensor for hsa-mir-208a)” the “apparent KD of MS2 coat protein” value [1] was 618 nM, the “apparent KD of MS2 coat protein” value [2] was 14.6 nM and the “apparent KD of MS2 coat protein” value [3] was 635 nM.
“AGUCCAGCCUGAGCUGGACAAAAGCAUGUACAUGAGGAUCACCCAUGUUCAUGUGCAAGCUUUUUGCUCGUCUUAAA [Zipper 52 - 4] (Eterna round: R96, puzzle: Sensor for hsa-mir-208a)” was tested, and the “apparent KD of MS2 coat protein” value (input ligand: FMN 200 uM) was 71.5 nM, the “apparent KD of MS2 coat protein” value [4] was 10.7 nM and the “apparent KD of MS2 coat protein” value (input ligand: none) was 69.8 nM.
